Results from CN108635579A (UNIV JINAN, dated 2018).

What was measured:
[1] = target: T1, 重组人碱性成纤维细胞生长因子(bFGF) (human, UniProt P09038 143-288, limits assumed); assay: cell-based or functional assay
T1 construct: Bought protein; also called 重组人bFGF; bFGF抗原

[2] = target: T1, 重组人碱性成纤维细胞生长因子(bFGF); assay: SPR, bFGF immobilised on the chip, nanobody 3.125-200 nM in flow

T1 sequence (P09038 143-288 limits assumed): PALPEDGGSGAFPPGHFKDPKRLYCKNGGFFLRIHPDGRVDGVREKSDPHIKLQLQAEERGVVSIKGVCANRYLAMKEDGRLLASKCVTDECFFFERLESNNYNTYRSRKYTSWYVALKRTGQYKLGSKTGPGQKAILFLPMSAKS

Molecule | Kd [2] [nM] | further results
阳性对照FGFR (receptor) |  | 最高增值抑制率, A375细胞 (CCK-8) [1]: 25.3%; 最高增值抑制率, B16-F10细胞 (CCK-8) [1]: 22.1%; 最高增值抑制率, B16细胞 (CCK-8) [1]: 27.1%
抗bFGF纳米抗体 Nb6 (VHH, Alpaca nanobody; Nickel-purified, anti-Flag detected; also called Nb bFGF) VHH: LQESGGDLVQPGGSLRLSCEVSGSNFSINDMGWYRQAPGKRREVVAGISSVGRTMYGDPVKGRFTISRDNAKNMVYLQMNRLKPEDTAVYYCHLYGDYRGTGFWGKGTQVTVSS | 10.3 | 
抗bFGF纳米抗体 Nb1 (VHH, Expressed from pET22b in E. coli, purified on a nickel column and detected with an anti-Flag antibody; also called Nb bFGF) VHH: LQESGGDLVQPGGSLRLSCEVSGSNFSNNDMGWYRQAPGKQREVVAGISSVGRTMYGDPVKGRFTISRDNAKNMVYLQMNRLKAKDTAVYYCHLYGDYRGTGFWGKGTQVTVSS | 11.3 | 
抗bFGF纳米抗体 Nb2 (VHH, Alpaca nanobody; Nickel-purified, anti-Flag detected; also called Nb bFGF) VHH: LQESGGDLVQPGGSLRLSCEVSGSNFSINDMGWYRQAPGKRREVVAGISSVGRAMYADPVKGRFTISRDNAKNMVYLQMNRLKPEDTAVYYCYLYGDYRGTGFWGKGTQVTVSS | 318 | 
抗bFGF纳米抗体 Nb3 (VHH, Alpaca nanobody; Nickel-purified, anti-Flag detected; also called Nb bFGF) VHH: LQESGGDLVQPGGSLRLSCEVSGSNFSINDMGWYRQAPGKRREVVAGISSVGRTMYADPVKGRFTISRDNAKNMVYLQMNRLKPEDTAVYYCHLYGDYRGTGFWGKGTQVTVSS | 5.37 | 
抗bFGF纳米抗体 Nb5 (VHH, Alpaca nanobody; Nickel-purified, anti-Flag detected; also called Nb bFGF) VHH: LQESGGGLVQAGGSLRLSCAASGRTFSSGAMGWFRQAPGKEPEFVATITWDGGTTYYADSVKGRYTISRDNAKNTVYLQMNDLKPEDTAVYSCAARSYSEAYYLIGSSDYNYWGQGTQVTVSS | 12.4 | 
